Measurements: patent US20230085393A1

B1: ZIKV-120765-491 (antibody, V domains shown)
VH: EVQLVESGGGLVQPGGSLRLSCAASGFTFIRYAMSWVRQAPGKGLEWVSDISGSGGSTFYADSVKGRFTISRDNSKNTLYLQMNSLRAEDTAVYYCARDDEGYTTNWYDAYDIWGQGTMVTVSS
VL: DIQMTQSPSSLSASVGDRVTITCRASQSIGSYLNWYQQRPGKAPKLLIYTASSLQSGVPSRFSGSGSGTDFILTISSLQPEDFATYYCQQNYNIPQVTFGPGTKVDIK
B2: ZIKV-120764-350 (antibody, V domains shown)
VH: DVQLVESGGGLIQPGGSLRLSCAASGFTARTNYMTWVRQAPGKGLEWVSVIYSGGSTIYADSVKGRFTISRDNAKNSLYLQMNSLRAEDTAVYYCARDRGYLDHWGQGTLVTVSS
VL: EIVLTQSPATLSLSPGERATLSCRASQSVTNYFAWYQQRPGQAPRLLIYDVSNRATGIPARFSGSGSGTDFTLTISSLEPEDFAVYYCQQRSNWPYTFGQGTKVEIK

Experiments:
[1] = molecular target: ZIKV Brazil strain virus (Asian lineage), E2 antigen on virions (Zika virus)
[2] = molecular target: ZIKV Dakar strain virus (African lineage), E2 antigen on virions (Zika virus)

Binder	IC50, RTCA cellular impedance neutralisation assay on Vero cells [1] [µg/mL]	IC50, RTCA cellular impedance neutralisation assay on Vero cells [2] [µg/mL]
B1	< 0.1	< 0.1
B2	< 0.1	< 0.1
